In US20260026500A1, “AGROCHEMICAL COMPOSITIONS” (BIOTALYS NV, priority 2022, published 2026):

System: Botrytis cinerea
Assay: In vitro microtiter plate antifungal assay, confluence analysis (IncuCyte S3) of spore outgrowth
Format: cell-based
Source text: An “IC50 value”, “EC50”, “IC50”, “EC50” or “half maximal inhibitory concentration” as used herein interchangeably is a measure for the potency of a polypeptide or cell wall disrupting agent or compositions as described herein in inhibiting the growth of a fungal pathogen. In practice (also see example 1) the growth of a fungal pathogen is tracked by measuring the confluency of said fungal pathogen in for example a well of a 96-well plate or 384-well plate in the presence of a series of different concentrations of the tested polypeptide or cell wall disrupting agent or compositions as described herein. The confluency data at the time-point at which the non-treated or negative control reaches for example 90% saturation is then taken for each concentration of the polypeptide or cell wall disrupting agent or compositions as described herein. Said confluence values are then plotted against the log transformed concentration values yielding a sigmoidal curve. This sigmoid curve may serve to define an IC50 value. Where this IC50 is the concentration of the polypeptide or cell wall disrupting agent or compositions as described herein where the corresponding confluence value is 50% of the saturated value as estimated by the maximum of the sigmoidal function.
The antifungal activity of VHHs, in combination with CWDEs, was assessed in an in vitro assay against the plant pathogenic fungus Botrytis cinerea. The current in vitro assay is a standard microtiter plate-based antifungal assay against Botrytis cinerea based on confluence analysis using an IncuCyte S3 System tracking the outgrowth of fungal spores overtime until saturation is reached. VHHs and CWDEs were assessed in serial dilutions, alone and in combination. The CWDEs were mixed with one VHH at a fixed ratio and serially diluted in 10 mM sterile HEPES buffer pH 7. […] Confluence was calculated with IncuCyte software version 2021C (Essen BioScience Inc.). […]
The IC50 value for both the CWDE and VHH were determined separately (FIGS. 1A and 1B, top panel). […]

B1: VHH-1: VHH, SEQ ID NO 1; taken from WO2021198396 (protein)
VHH: DVQLVESGGGLVQAGGSLRLSCAASRSIFSINAMDWYRQAPGKQREWVAGITRGGTTKYADSVKGRFTISRDNAKKKVYLQMNSLKPEDTAVYYCNVLRGEQPWTRDYWGQGTQVTVSS
modifications: Synthetic VHH sequence.
- IC50 value, determined separately (VHH or CWDE alone, confluence of Botrytis cinerea, 4-parameter log-logistic fit, CWDE protein concentration overestimated): 105.2 µg/mL
- % change, additive effect of component, buffer normalized to 100% (dose regime VHH-1 at 16.7 mg/L and CWDE at 25 mg/L, protease inhibitor 0.06 X): 20.5%
- Estimate (% confluence), additive effect of component, difference from buffer (dose regime VHH-1 at 16.7 mg/L and CWDE at 25 mg/L, protease inhibitor 0.06 X, buffer 55.3): 11.3 % confluence
